For this test, the target named is sVP40Δ43 R214A (Sudan virus) (UniProt Q5XX06). Nature of the test: SEC.

Results on one substance are retold here after publication PMC11292656.

On to “sVP40Δ43 R214A (from UniProt Q5XX06 44-326) (domain or fragment)”, for which the octameric percentage of total VP40 AUC worked out at 50%.
